Experimental data reported in the supplement of paper PMC10567573.

B1: GAGE1 (parent)
chain: RPRRYVQPPEMIGPMRPEQFSDEV
B2: POMT2 (parent)
chain: LRGGGQVLLGWTLHYFPFFLMGRV

Variants of: B1
Experiment: protein stability index of a GFP-peptide fusion (GPS, HEK-293T) (PSI 1-6); higher = more stable
Settings: c terminus: a fixed tail appended
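Also: lentivirally expressed fusions sorted by FACS into six bins by GFP to DsRed ratio, PSI derived from sequencing read proportions per bin multiplied by bin number.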

Protein stability index, by site and new letter:
R3: V 4.03, G 3.96, Q 4.11, Y 3.1, D 4.28, L 2.88, M 3.89, T 4.3
Q19: P 4.11, M 3.58, E 3.51, L 3.63, T 4.09, Y 3.92, S 3.82, F 3.62, A 3.71, R 3.71, K 3.98, V 3.78
V24: N 4.2, E 4.17, R 4.47, C 3.35, W 4.01, S 4.21, Q 4.18, M 3.74, T 4.17, K 4.5, A 4.52
D22: E 3.83, A 3.87, Q 3.11, L 2.6, G 3.62, T 3.76, W 2.53, N 3.23, H 3.29, I 1.97, P 3.95, Y 2.77
P2: Y 2.21, S 3.92, V 3.5, M 3.24, A 3.59, G 3.59, K 3.24, L 2.99, W 2.14, E 4.12, T 3.33, D 3.98, C 2.99
V6: M 3.59, H 3.69, T 3.66, C 3.63, Q 3.59, G 4.18, Y 3.01, N 3.9, F 3.39, R 3.6, W 3.18
E18: H 3.46, I 3.13, Y 3.51, D 3.48, T 3.84, K 3.43, W 3.16, N 3.66, F 3.34, P 3.6
I12: Q 4.62, D 4.72, F 3.99, M 4.39, T 4.53, C 4.33, G 4.69, L 4.12, R 4.35, W 3.84, A 4.42, N 4.71
E23: Y 2.76, S 3.68, W 2.95, N 3.42, R 3.85, G 3.46, L 3.08, A 3.59, F 2.98, P 3.63, C 3.58, M 2.85, T 3.75, I 2.92
P14: M 3.6, N 4.2, V 4.2, W 3.58, K 3.71, D 4.54, L 3.48, F 3.54, Y 4.26, G 3.97, C 3.68
G13: F 3.8, W 3.56, P 4.68, N 4.33, Y 3.85, V 4.05, Q 4.54, I 3.25, C 3.96, M 4.14
Q7: N 3.64, C 4.04, D 3.8, E 3.86, W 3.73
M11: E 3.88, Y 3.82, D 3.53, I 3.38, R 4.22, V 3.46, F 4.05, K 4.15, C 3.56
P8: A 3.71, G 4.51, K 3.98, M 3.48, N 4.22, R 3.93, D 4.31, E 4.54, F 3.41, T 4.12
M15: T 4.72, V 4.49, F 3.89, A 4.21, L 3.95, E 4.78
E10: F 3.88, S 4.08, I 3.69, A 4.15, K 4.48, C 3.13, T 4.33, G 4.16, M 4
P9: R 4.36, T 4.28, Q 4.52, K 4.13, W 3.77, F 3.79, L 4, D 4.61
R1: N 3.93, K 3.96, M 3.98, S 3.73, L 3.96, W 2.74, H 3.94, E 4.23, I 3.7
R4: Q 4.66, F 3.88, Y 3.79, N 3.72, H 3.43, K 3.69, P 4.11, A 3.94, D 4.46, T 3.98, S 4.05
Y5: L 3.31, F 3.78, D 4.22, A 4.38, K 4.43, M 3.47, E 4.55, R 3.91, P 4.32, C 3.2, G 4.49, Q 4.2, I 3.31
R16: M 3.88, N 4.31, G 4.17, P 4.35, C 3.84, Y 4.02, V 4.16, W 3.28, D 3.84, F 3.8
S21: Y 3.63, F 2.97, T 3.71, I 2.9, A 3.69, H 3.55, W 3.01, K 4, C 4.15, L 3.48, R 4.11, E 3.73, D 3.98
F20: K 4.92, R 4.64, A 4.98, Q 4.84, H 4.04, D 4.91, Y 3.82, N 4.8, C 4.64
P17: D 4.43, H 3.92, F 3.58, A 3.8, G 4.55, V 4.43

Variants of: B2
Experiment: as above
Settings: c terminus: a fixed tail appended

Protein stability index, by site and new letter:
W11: M 1.04, Q 3, A 1.93, E 1.74, Y 1.2, T 2.09
Q6: L 2.48, I 2.01, F 2.24, P 3.06
L20: P 5.95, W 2.38, N 3.25, F 4.18
L13: D 1.29, E 2.93
L1: R 3.02
L9: M 3.23, N 2.66, C 1.75, T 2.66, P 2.59, A 3.06
M21: W 4.41, N 1.43
R23: E 3.15, C 2.79, W 3.02, T 3.19, S 2.85
F19: W 3.22, S 3.98, G 4.57, Y 2.17, Q 4.97
F18: Y 1.42, T 1.98, V 3.11, W 1.2, E 4.02
V24: R 3.15, H 3.69
G22: P 2.64, D 3.12, C 1.58
G4: L 1.27, Y 2.25, H 3.5, K 3.19, V 2.52
F16: T 3.4, E 3.44, Q 2.26
Y15: I 4.09, T 1.39, W 2.28, E 2.31
G3: S 1.68, Q 2.94
V7: Q 1.21, R 2.7, W 2.36, Y 4.03, A 2.26, C 1.26
L8: R 3.14, V 1.64, Y 3.82, N 3
G10: Y 3.25, V 2.29, I 1.92, N 1.97, W 2.32
R2: T 1.36, P 2.6, K 2.04, W 3.48, D 3.49, S 2.59
H14: P 2.43
T12: V 3.16, I 3.35, A 2.59
P17: C 2.18, D 4.4, N 2.79, M 4.38, E 1.35
G5: D 3.03, N 3.2, Y 3.6
